Here are results for three substances from doi:10.1101/2020.11.24.396648.

Holding throughout (experiment): cryo-EM structure
Test [1] has as its target E. faecalis 70S ribosome (Enterococcus faecalis (endogenous in TX5332)).
Test [2] deals with S. aureus 70S ribosome (Staphylococcus aureus (endogenous in SH1000)) (UniProt P48940).
Test [3] deals with L. monocytogenes 70S ribosome (Listeria monocytogenes (endogenous in EDG-e)) (UniProt B8DAY5).

UniProt P48940, sequence (P48940 whole entry, looked up): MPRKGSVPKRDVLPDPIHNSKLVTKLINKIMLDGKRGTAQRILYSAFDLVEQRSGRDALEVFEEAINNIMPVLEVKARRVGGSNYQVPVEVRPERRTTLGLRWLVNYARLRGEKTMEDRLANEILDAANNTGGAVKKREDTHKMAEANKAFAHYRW

For the substance “E. faecalis LsaA-EQ2-HTF (ATPase-deficient E142Q/E452Q, C-terminal His6-TEV-FLAG3 tag) (natural protein)”, the occupancy of the factor on the ribosome (percent of picked ribosomal particles) in test [1] was greater than 95%.

In test [2], “S. haemolyticus VgaALC-EQ2-FLAG3 (ATPase-deficient E105Q/E410Q, C-terminal FLAG3 tag) (natural protein)” had an occupancy of the factor on the ribosome (percent of picked ribosomal particles) of 60%.

The substance “L. monocytogenes VgaL-EQ2-HTF (Lmo0919, ATPase-deficient E104Q/E408Q, C-terminal His6-TEV-FLAG3 tag) (natural protein)” yielded an occupancy of the factor on the ribosome (percent of picked ribosomal particles) in test [3] of 70%.
